Experimental findings from paper PMC10491584, “Structural convergence endows nuclear transport receptor Kap114p with a transcriptional repressor function toward TATA-binding protein” (Nature Communications, 2023) are described below.

In one test the target is T1, Kap114p (Q597A) (S. cerevisiae, UniProt P53067 1-1004, Q597A).
T1 construct: Kap114p, S. cerevisiae, full length with Q597A; also called GST-Kap114p (Q597); source: E. coli Rosetta, purified (GST resin, MonoQ, Superdex 200)
T1 sequence (looked up): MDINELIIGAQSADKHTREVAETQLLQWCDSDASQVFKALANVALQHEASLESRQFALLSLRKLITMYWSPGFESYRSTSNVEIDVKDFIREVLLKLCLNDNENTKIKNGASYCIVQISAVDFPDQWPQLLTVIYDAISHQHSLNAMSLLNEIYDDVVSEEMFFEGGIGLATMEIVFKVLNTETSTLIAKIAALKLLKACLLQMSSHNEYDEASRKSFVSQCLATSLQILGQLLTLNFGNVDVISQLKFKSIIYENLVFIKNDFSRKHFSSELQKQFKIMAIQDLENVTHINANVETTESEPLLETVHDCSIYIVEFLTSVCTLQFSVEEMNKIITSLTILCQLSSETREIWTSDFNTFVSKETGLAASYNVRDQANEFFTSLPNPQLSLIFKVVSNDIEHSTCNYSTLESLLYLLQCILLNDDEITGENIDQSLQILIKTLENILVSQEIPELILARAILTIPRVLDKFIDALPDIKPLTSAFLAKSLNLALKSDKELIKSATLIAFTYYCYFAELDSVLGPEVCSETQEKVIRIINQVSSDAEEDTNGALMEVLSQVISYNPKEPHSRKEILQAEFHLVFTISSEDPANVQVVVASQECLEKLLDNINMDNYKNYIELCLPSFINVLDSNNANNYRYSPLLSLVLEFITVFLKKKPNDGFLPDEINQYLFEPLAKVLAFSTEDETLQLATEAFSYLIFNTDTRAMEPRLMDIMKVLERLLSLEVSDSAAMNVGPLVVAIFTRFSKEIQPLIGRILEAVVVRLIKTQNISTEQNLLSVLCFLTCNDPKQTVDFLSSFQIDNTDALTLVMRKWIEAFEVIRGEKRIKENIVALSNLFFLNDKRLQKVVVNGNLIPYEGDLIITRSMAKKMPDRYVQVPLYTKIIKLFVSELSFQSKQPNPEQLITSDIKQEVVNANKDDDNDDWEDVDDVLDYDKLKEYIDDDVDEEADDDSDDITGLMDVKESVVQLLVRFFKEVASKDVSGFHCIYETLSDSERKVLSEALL
In words: ITC; MicroCal iTC200, 25 °C, 20 mM HEPES pH 7.4, 150 mM NaCl; high concentration: 50 µM wild type or mutant Kap114p in the sample cell, 500 µM wild type or mutant yTBPC in the syringe; triplicate. The conditions noted are these: both partners purified.

Another test deals with T2, Kap114pΔ(Y939) (S. cerevisiae, UniProt P53067 1-1004, ΔY939).
T2 construct: Kap114p, S. cerevisiae, full length with residue Y939 deleted; also called GST-Kap114p (Δ939); source: E. coli Rosetta, purified (GST resin, MonoQ, Superdex 200)
T2 sequence (looked up): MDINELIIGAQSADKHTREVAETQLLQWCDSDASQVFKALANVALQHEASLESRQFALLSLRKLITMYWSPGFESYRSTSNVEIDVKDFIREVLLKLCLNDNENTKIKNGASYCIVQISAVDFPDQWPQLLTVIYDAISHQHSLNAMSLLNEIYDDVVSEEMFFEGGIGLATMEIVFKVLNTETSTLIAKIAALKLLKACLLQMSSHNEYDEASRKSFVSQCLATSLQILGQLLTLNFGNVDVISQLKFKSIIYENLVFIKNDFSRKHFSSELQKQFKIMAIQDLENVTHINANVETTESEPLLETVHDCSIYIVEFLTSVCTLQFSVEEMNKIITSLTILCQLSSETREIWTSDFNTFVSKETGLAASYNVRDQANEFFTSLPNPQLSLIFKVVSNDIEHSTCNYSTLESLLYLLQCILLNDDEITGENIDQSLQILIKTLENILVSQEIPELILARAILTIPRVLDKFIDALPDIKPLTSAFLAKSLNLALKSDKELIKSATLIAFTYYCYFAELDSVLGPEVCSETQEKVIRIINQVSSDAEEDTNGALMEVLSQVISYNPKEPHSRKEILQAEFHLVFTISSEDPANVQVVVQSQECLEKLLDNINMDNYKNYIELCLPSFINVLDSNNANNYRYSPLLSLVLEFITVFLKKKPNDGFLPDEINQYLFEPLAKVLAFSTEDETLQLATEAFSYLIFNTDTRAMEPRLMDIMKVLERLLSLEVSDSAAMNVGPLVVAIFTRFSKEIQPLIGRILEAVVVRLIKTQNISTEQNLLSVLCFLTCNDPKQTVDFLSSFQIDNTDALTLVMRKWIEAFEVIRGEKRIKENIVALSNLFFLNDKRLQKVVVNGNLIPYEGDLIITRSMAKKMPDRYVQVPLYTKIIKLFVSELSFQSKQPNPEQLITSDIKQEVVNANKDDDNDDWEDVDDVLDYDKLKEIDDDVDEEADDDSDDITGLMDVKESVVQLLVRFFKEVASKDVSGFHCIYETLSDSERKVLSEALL
Described as above. Conditions: both partners purified.

B1: yTBP^C wild type (core domain of yeast TATA-box binding protein, a.a. 61-240) (domain or fragment, S. cerevisiae, UniProt P13393 61-240, looked up)
chain: SGIVPTLQNIVATVTLGCRLDLKTVALHARNAEYNPKRFAAVIMRIREPKTTALIFASGKMVVTGAKSEDDSKLASRKYARIIQKIGFAAKFTDFKIQNIVGSCDVKFPIRLEGLAFSHGTFSSYEPELFPGLIYRMVKPKIVLLIFVSGKIVLTGAKQREEIYQAFEAIYPVLSEFRKM
notes: modified pET28a, 6xHis tag followed by a PreScission site; also called yTBPC WT; His-yTBP (61-240); source: E. coli Rosetta, purified (Ni-NTA, HiTrap SP, Superdex 75); not shown: His6, N-terminal, cleaved
For the molecule B1, the Kd in the test with Kap114p (Q597A) came out at 7.4 nM; with Kap114pΔ(Y939), 37.1 nM.
